Patent publication US20230136228A1 (LAMKAP BIO ALPHA, published 2023)

T1: human CEACAM8 (human, UniProt P31997 35-320)
T1 construct: whole, on cells
T1 sequence (looked up): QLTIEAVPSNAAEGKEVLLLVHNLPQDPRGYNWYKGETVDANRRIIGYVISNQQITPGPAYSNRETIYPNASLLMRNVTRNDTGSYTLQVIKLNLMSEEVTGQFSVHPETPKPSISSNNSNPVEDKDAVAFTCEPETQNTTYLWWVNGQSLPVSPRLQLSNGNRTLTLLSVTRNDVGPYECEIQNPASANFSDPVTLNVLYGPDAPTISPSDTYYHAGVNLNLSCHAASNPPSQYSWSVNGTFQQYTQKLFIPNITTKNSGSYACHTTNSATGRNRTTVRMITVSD

T2: human CEACAM5 (carcinoembryonic antigen, CEA), cell surface (human, UniProt P06731 35-685)
T2 sequence (looked up): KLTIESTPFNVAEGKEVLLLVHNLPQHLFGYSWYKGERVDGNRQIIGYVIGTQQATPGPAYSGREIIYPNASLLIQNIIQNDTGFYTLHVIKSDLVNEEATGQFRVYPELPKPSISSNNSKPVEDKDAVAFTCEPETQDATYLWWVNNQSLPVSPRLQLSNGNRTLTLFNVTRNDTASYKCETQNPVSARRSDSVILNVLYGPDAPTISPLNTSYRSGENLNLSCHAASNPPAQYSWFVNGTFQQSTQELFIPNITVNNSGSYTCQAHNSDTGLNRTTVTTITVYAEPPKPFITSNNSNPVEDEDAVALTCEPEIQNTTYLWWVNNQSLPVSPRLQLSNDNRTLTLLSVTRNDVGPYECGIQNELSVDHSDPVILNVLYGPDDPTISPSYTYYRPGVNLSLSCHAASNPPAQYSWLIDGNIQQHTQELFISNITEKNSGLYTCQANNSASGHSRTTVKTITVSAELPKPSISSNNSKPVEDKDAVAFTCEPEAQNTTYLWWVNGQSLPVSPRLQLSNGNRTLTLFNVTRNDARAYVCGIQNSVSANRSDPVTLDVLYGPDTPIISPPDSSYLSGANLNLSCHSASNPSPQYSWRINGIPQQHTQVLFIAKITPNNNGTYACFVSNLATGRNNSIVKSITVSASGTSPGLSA


What was measured:
human CEACAM8 = target: T1, human CEACAM8; experiment: flow cytometry, transfected PEAK cells
From the text: Vectors encoding the full-length version of human CEACAM 1, 3, 4, 5, 6, 7, 8, 18, 19, 20 and […] are used to express these proteins at the surface of PEAK and/or CHO cells as described in Example 1. Similarly, vectors encoding the full-length version of cyno CEACAM 5 and 6 are also used to express these proteins at the surface of PEAK and/or CHO cells. Non-transfected PEAK and/or CHO cells are used as negative control. Cells are harvested, counted, checked for viability and resuspended at 3×10⁶ cells/ml in FACS buffer (PBS 2% BSA, 0.1% NaN₃). 100 μl of the cell suspension are distributed in V-bottom 96-well plates (3×10⁵ cells/well). The supernatant is removed by centrifugation 3 minutes at 4° C., 1300 rpm and the cells incubated for 15 minutes at 4° C. with increasing concentrations of the antibody according to the invention. The antibodies carrying the anti-CEACAM5 arms to test are diluted in FACS buffer and the concentration range is 30 pM-500 nM. Cells are washed twice with cold FACS buffer and re-incubated for further 15 minutes at 4° C. with a compatible anti-human IgG secondary antibody. Cells are washed twice with cold FACS buffer and resuspended in 300 μl FACS buffer with 1:1500-diluted TOPRO-3 (Invitrogen). Fluorescence is measured using a FACSCalibur™ (BD Biosciences) or a Cytoflex Platform (Beckman Coulter). Dose-response binding curves are fitted using GraphPad Prism8 software. In the same manner, CEACAM1, CEACAM6 and other CEACAMs can be characterized.
For the bispecific antibodies AB17L3-1/N, AB71L3-1/N, AB72L3-1/N, AB73L3-1/N the MFI measured for binding to CEACAM5 transfected cells was found between 29000 and 41000 (Table 2). In contrast MFI found by using PEAK cells transfected with CEACAM 1,3,4,6,8 were found below 1000 with the only exception of a strong signal for AB72L3-1/N on CEACAM8 transfected cells. When MFI values obtained on transfected cells expressing any given CEACAM are divided by the values obtained on WT PEAK cells, “factors to PEAK WT” can be calculated (Table 3).

[1] = target: T2, human CEACAM5 (carcinoembryonic …); experiment: cell-based or functional assay
human CD3ε = target: T3, human CD3ε (human, UniProt P07766 23-207); experiment: flow cytometry, primary CD4+ and CD8+ T-cells
T3 construct: whole, on cells; Present on cells as part of the CD3/TCR complex; also called CD3 epsilon
T3 sequence (P07766 23-207): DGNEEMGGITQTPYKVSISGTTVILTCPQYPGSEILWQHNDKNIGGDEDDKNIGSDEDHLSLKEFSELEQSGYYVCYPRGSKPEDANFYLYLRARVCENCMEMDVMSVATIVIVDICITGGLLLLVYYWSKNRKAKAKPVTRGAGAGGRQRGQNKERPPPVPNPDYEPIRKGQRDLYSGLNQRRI

Binder | binding result (human CEACAM8) | Killing EC50, HPAFII cells (TDCC, LDH release) [1] | Killing EC50, LS174T cells (TDCC, LDH release) [1] | Killing EC50, MKN45 cells (TDCC, LDH release) [1] | binding result (human CD3ε)
AB1L3-1/N (bispecific antibody, human IgG1, kappa, lambda, L234A L235A, Kappa-lambda body: common heavy chain (hIgG1 L234A+L235A+P329A), kappa CEA light chain AB1, lambda CD3 light chain L3-1 (1A4); also called parental KL bispecific antibody) heavy: EVQLVESGGGLVQPGGSLKLSCAASGFTFNTYAMNWVRQAPGKGLEWVGRIRSKYNNYATYYADSVKDRFTISRDDSKNTAYLQMNSLKTEDTAVYYCVRHGNFGNSYVSWFAYWGQGTLVTVSSASTKGPSVFPLAPSSKSTSGGTAALGCLVKDYFPEPVTVSWNSGALTSGVHTFPAVLQSSGLYSLSSVVTVPSSSLGTQTYICNVNHKPSNTKVDKRVEPKSCDKTHTCPPCPAPEAAGGPSVFLFPPKPKDTLMISRTPEVTCVVVDVSHEDPEVKFNWYVDGVEVHNAKTKPREEQYNSTYRVVSVLTVLHQDWLNGKEYKCKVSNKALAAPIEKTISKAKGQPREPQVYTLPPSREEMTKNQVSLTCLVKGFYPSDIAVEWESNGQPENNYKTTPPVLDSDGSFFLYSKLTVDKSRWQQGNVFSCSVMHEALHNHYTQKSLSLSPG light 1: EIVLTQSPATLSLSPGERATLSCRASQSVNSNLNWYQQKPGQAPRLLIYHGSNRATGIPARFSGSGSGTDFTLTISSLEPEDFAVYYCQQFDLRHEHNTFGQGTKVEIKRTVAAPSVFIFPPSDEQLKSGTASVVCLLNNFYPREAKVQWKVDNALQSGNSQESVTEQDSKDSTYSLSSTLTLSKADYEKHKVYACEVTHQGLSSPVTKSFNRGEC light 2: QTVVTQEPSLTVSPGGTVTLTCRSSTGAVTTSNYANWFQQKPGQAPRGLIGGTNKRAPGTPARFSGSLLGGKAALTLSGAQPEDEAEYYCALWYKQRWVFGGGTKLTVLGQPKAAPSVTLFPPSSEELQANKATLVCLISDFYPGAVTVAWKADSSPVKAGVETTTPSKQSNNKYAASSYLSLTPEQWKSHRSYSCQVTHEGSTVEKTVAPTECS | no binding (tested: 10 mcg/ml) | – | – | – | –
AB71L3-1/N (bispecific antibody, human IgG1, kappa, lambda, L234A L235A, Kappa-lambda body, lead optimization wave 2) heavy: EVQLVESGGGLVQPGGSLKLSCAASGFTFNTYAMNWVRQAPGKGLEWVGRIRSKYNNYATYYADSVKDRFTISRDDSKNTAYLQMNSLKTEDTAVYYCVRHGNFGNSYVSWFAYWGQGTLVTVSSASTKGPSVFPLAPSSKSTSGGTAALGCLVKDYFPEPVTVSWNSGALTSGVHTFPAVLQSSGLYSLSSVVTVPSSSLGTQTYICNVNHKPSNTKVDKRVEPKSCDKTHTCPPCPAPEAAGGPSVFLFPPKPKDTLMISRTPEVTCVVVDVSHEDPEVKFNWYVDGVEVHNAKTKPREEQYNSTYRVVSVLTVLHQDWLNGKEYKCKVSNKALAAPIEKTISKAKGQPREPQVYTLPPSREEMTKNQVSLTCLVKGFYPSDIAVEWESNGQPENNYKTTPPVLDSDGSFFLYSKLTVDKSRWQQGNVFSCSVMHEALHNHYTQKSLSLSPG light 1: EIVLTQSPATLSLSPGERATLSCRASQSVNSNLNWYQQKPGQAPRLLIYHSSNRPHGIPARFSGSGSGTDFTLTISSLEPEDFAVYYCQQFDYFKEHNTFGQGTKVEIKRTVAAPSVFIFPPSDEQLKSGTASVVCLLNNFYPREAKVQWKVDNALQSGNSQESVTEQDSKDSTYSLSSTLTLSKADYEKHKVYACEVTHQGLSSPVTKSFNRGEC light 2: QTVVTQEPSLTVSPGGTVTLTCRSSTGAVTTSNYANWFQQKPGQAPRGLIGGTNKRAPGTPARFSGSLLGGKAALTLSGAQPEDEAEYYCALWYKQRWVFGGGTKLTVLGQPKAAPSVTLFPPSSEELQANKATLVCLISDFYPGAVTVAWKADSSPVKAGVETTTPSKQSNNKYAASSYLSLTPEQWKSHRSYSCQVTHEGSTVEKTVAPTECS | – | 0.16 nM | 0.16 nM | 0.09 nM | –
AB73L3-1/N (bispecific antibody, human IgG1, kappa, lambda, L234A L235A, Kappa-lambda body, lead optimization wave 2) heavy: EVQLVESGGGLVQPGGSLKLSCAASGFTFNTYAMNWVRQAPGKGLEWVGRIRSKYNNYATYYADSVKDRFTISRDDSKNTAYLQMNSLKTEDTAVYYCVRHGNFGNSYVSWFAYWGQGTLVTVSSASTKGPSVFPLAPSSKSTSGGTAALGCLVKDYFPEPVTVSWNSGALTSGVHTFPAVLQSSGLYSLSSVVTVPSSSLGTQTYICNVNHKPSNTKVDKRVEPKSCDKTHTCPPCPAPEAAGGPSVFLFPPKPKDTLMISRTPEVTCVVVDVSHEDPEVKFNWYVDGVEVHNAKTKPREEQYNSTYRVVSVLTVLHQDWLNGKEYKCKVSNKALAAPIEKTISKAKGQPREPQVYTLPPSREEMTKNQVSLTCLVKGFYPSDIAVEWESNGQPENNYKTTPPVLDSDGSFFLYSKLTVDKSRWQQGNVFSCSVMHEALHNHYTQKSLSLSPG light 1: EIVLTQSPATLSLSPGERATLSCRASQSVNSNLNWYQQKPGQAPRLLIYHSNNRPHGIPARFSGSGSGTDFTLTISSLEPEDFAVYYCQQFDYFREYNTFGQGTKVEIKRTVAAPSVFIFPPSDEQLKSGTASVVCLLNNFYPREAKVQWKVDNALQSGNSQESVTEQDSKDSTYSLSSTLTLSKADYEKHKVYACEVTHQGLSSPVTKSFNRGEC light 2: QTVVTQEPSLTVSPGGTVTLTCRSSTGAVTTSNYANWFQQKPGQAPRGLIGGTNKRAPGTPARFSGSLLGGKAALTLSGAQPEDEAEYYCALWYKQRWVFGGGTKLTVLGQPKAAPSVTLFPPSSEELQANKATLVCLISDFYPGAVTVAWKADSSPVKAGVETTTPSKQSNNKYAASSYLSLTPEQWKSHRSYSCQVTHEGSTVEKTVAPTECS | – | 0.13 nM | 0.06 nM | 0.03 nM | –
AB72L3-1/N (bispecific antibody, human IgG1, kappa, lambda, L234A L235A, Kappa-lambda body, lead optimization wave 2) heavy: EVQLVESGGGLVQPGGSLKLSCAASGFTFNTYAMNWVRQAPGKGLEWVGRIRSKYNNYATYYADSVKDRFTISRDDSKNTAYLQMNSLKTEDTAVYYCVRHGNFGNSYVSWFAYWGQGTLVTVSSASTKGPSVFPLAPSSKSTSGGTAALGCLVKDYFPEPVTVSWNSGALTSGVHTFPAVLQSSGLYSLSSVVTVPSSSLGTQTYICNVNHKPSNTKVDKRVEPKSCDKTHTCPPCPAPEAAGGPSVFLFPPKPKDTLMISRTPEVTCVVVDVSHEDPEVKFNWYVDGVEVHNAKTKPREEQYNSTYRVVSVLTVLHQDWLNGKEYKCKVSNKALAAPIEKTISKAKGQPREPQVYTLPPSREEMTKNQVSLTCLVKGFYPSDIAVEWESNGQPENNYKTTPPVLDSDGSFFLYSKLTVDKSRWQQGNVFSCSVMHEALHNHYTQKSLSLSPG light 1: EIVLTQSPATLSLSPGERATLSCRASQSVNSNLNWYQQKPGQAPRLLIYHSTNRPRGIPARFSGSGSGTDFTLTISSLEPEDFAVYYCQQFDYFKEYNTFGQGTKVEIKRTVAAPSVFIFPPSDEQLKSGTASVVCLLNNFYPREAKVQWKVDNALQSGNSQESVTEQDSKDSTYSLSSTLTLSKADYEKHKVYACEVTHQGLSSPVTKSFNRGEC light 2: QTVVTQEPSLTVSPGGTVTLTCRSSTGAVTTSNYANWFQQKPGQAPRGLIGGTNKRAPGTPARFSGSLLGGKAALTLSGAQPEDEAEYYCALWYKQRWVFGGGTKLTVLGQPKAAPSVTLFPPSSEELQANKATLVCLISDFYPGAVTVAWKADSSPVKAGVETTTPSKQSNNKYAASSYLSLTPEQWKSHRSYSCQVTHEGSTVEKTVAPTECS | – | 0.12 nM | 0.11 nM | 0.02 nM | binds
